± gives the uncertainty stated by the source.
Assay: protein stability index of a GFP-peptide fusion (yeast GPS) (PSI 1-4); higher = more stable; sorted into four equal gates, so the index is relative within each strain
Outline: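 Yeast carrying a pooled library were grown to mid-log phase in leucine-free medium. Each library plasmid expresses Cherry and has a tiled 17-residue yeast protein peptide fused downstream of GFP. Cells were sorted into four equal gates by GFP/Cherry ratio, and plasmids from each gate were PCR-amplified, Illumina-sequenced and assigned to strains by barcode. Summing, across gates, the read frequency times the gate number gave each peptide's protein stability index.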

DVLKSQANTEPENITKR [MCD1]
protein stability index (doa10∆): 3.06 ± 0.1
protein stability index (pdr5∆): 3.02 ± 0.083
protein stability index (san1∆): 2.98 ± 0.057
protein stability index (ubr1∆): 3.09 ± 0.046

YSWLLFEASCMEGQKLD [YJR042W/NUP85]
protein stability index (doa10∆): 1.09 ± 0.094
protein stability index (pdr5∆): 1.36 ± 0.09
protein stability index (san1∆): 1.39 ± 0.2
protein stability index (ubr1∆): 1.17 ± 0.064

ELGAINLHALSMSLQSK [SWI1]
protein stability index (doa10∆): 2.39 ± 0.058
protein stability index (pdr5∆): 2.33 ± 0.085
protein stability index (san1∆): 1.99 ± 0.27
protein stability index (ubr1∆): 2.46 ± 0.076

PRVSNQSNEDTFLPSYM [RRI2]
protein stability index (doa10∆): 3.07 ± 0.087
protein stability index (pdr5∆): 3.05 ± 0.09
protein stability index (san1∆): 3.14 ± 0.089
protein stability index (ubr1∆): 3.44 ± 0.067

STGPTGAVSLNPSITRL [RRP4]
protein stability index (doa10∆): 2.92 ± 0.057
protein stability index (pdr5∆): 3.05 ± 0.074
protein stability index (san1∆): 2.88 ± 0.042
protein stability index (ubr1∆): 3.06 ± 0.05

KIMQSISNKDVIFKIRD [SRB4]
protein stability index (doa10∆): 3.34 ± 0.1
protein stability index (pdr5∆): 2.91 ± 0.15
protein stability index (san1∆): 3.22 ± 0.11
protein stability index (ubr1∆): 2.72 ± 0.12

ENFSNGISLVMEIVANA [MED1]
protein stability index (doa10∆): 2.12 ± 0.067
protein stability index (pdr5∆): 2.53 ± 0.054
protein stability index (san1∆): 2.5 ± 0.057
protein stability index (ubr1∆): 2.51 ± 0.034

YINSDSVNPAMLPGSSN [RPO31]
protein stability index (doa10∆): 2.6 ± 0.1
protein stability index (pdr5∆): 2.74 ± 0.099
protein stability index (san1∆): 2.73 ± 0.15
protein stability index (ubr1∆): 2.83 ± 0.074

DAHGVTQARVITGNKIM [RPS13]
protein stability index (doa10∆): 2.21 ± 0.088
protein stability index (pdr5∆): 1.61 ± 0.071
protein stability index (san1∆): 1.22 ± 0.12
protein stability index (ubr1∆): 1.56 ± 0.062

NESSTFLKLVLSESPVD [SIN4]
protein stability index (doa10∆): 2.1 ± 0.041
protein stability index (pdr5∆): 1.95 ± 0.052
protein stability index (san1∆): 2.05 ± 0.073
protein stability index (ubr1∆): 2.02 ± 0.046

SFLSKHALYLAPSGIRM [SSN2]
protein stability index (doa10∆): 2.12 ± 0.067
protein stability index (pdr5∆): 1.56 ± 0.059
protein stability index (san1∆): 1.46 ± 0.12
protein stability index (ubr1∆): 2.19 ± 0.086

NKYQIKKAVKELYEVDV [RPL25]
protein stability index (doa10∆): 3.03 ± 0.077
protein stability index (pdr5∆): 3.15 ± 0.078
protein stability index (san1∆): 3.12 ± 0.042
protein stability index (ubr1∆): 3.21 ± 0.06

LGPGIYCDPNTQEIRPV [RRP40]
protein stability index (doa10∆): 2.62 ± 0.057
protein stability index (pdr5∆): 2.78 ± 0.051
protein stability index (san1∆): 2.53 ± 0.057
protein stability index (ubr1∆): 2.59 ± 0.058

ISYTSHIEGVVILKKNP [RPN1]
protein stability index (doa10∆): 2.57 ± 0.059
protein stability index (pdr5∆): 3.14 ± 0.078
protein stability index (san1∆): 2.87 ± 0.077
protein stability index (ubr1∆): 2.52 ± 0.046

FDDSSRIVNHKTKLWGF [LIN1]
protein stability index (doa10∆): 3.09 ± 0.071
protein stability index (pdr5∆): 2.98 ± 0.08
protein stability index (san1∆): 3.1 ± 0.069
protein stability index (ubr1∆): 2.94 ± 0.055

KLLQLFLTPMDSIDLAP [YML103C/NUP188]
protein stability index (doa10∆): 1.9 ± 0.071
protein stability index (pdr5∆): 1.54 ± 0.062
protein stability index (san1∆): 1.76 ± 0.092
protein stability index (ubr1∆): 1.36 ± 0.038

YARADTHFLLNIYDQLR [RRP6]
protein stability index (doa10∆): 2.54 ± 0.045
protein stability index (pdr5∆): 2.34 ± 0.042
protein stability index (san1∆): 2.44 ± 0.05
protein stability index (ubr1∆): 2.58 ± 0.027

TLAYDRGHRIRREFKQY [PRP8]
protein stability index (doa10∆): 2.82 ± 0.08
protein stability index (pdr5∆): 2.63 ± 0.058
protein stability index (san1∆): 2.35 ± 0.098
protein stability index (ubr1∆): 2.3 ± 0.052

VLVSMGSSNKAVVQTVK [YJL039C/NUP192]
protein stability index (doa10∆): 1.33 ± 0.26
protein stability index (pdr5∆): 1.5 ± 0.15
protein stability index (ubr1∆): 1.34 ± 0.19

LSTGRKFERARGRRRSK [RPL18A]
protein stability index (ubr1∆): 3.05 ± 0.1

SGNDSMAGKVLILTSHN [BRR2]
protein stability index (doa10∆): 2.13 ± 0.058
protein stability index (pdr5∆): 2.28 ± 0.072
protein stability index (san1∆): 1.63 ± 0.091
protein stability index (ubr1∆): 2.36 ± 0.089

LSEWEEYLKGSESQLNS [YCS4]
protein stability index (doa10∆): 3.44 ± 0.13
protein stability index (pdr5∆): 3.65 ± 0.13
protein stability index (san1∆): 3.46 ± 0.12
protein stability index (ubr1∆): 3.49 ± 0.1

RYVYAHFPINVNIVEKD [RPL9A]
protein stability index (doa10∆): 2.04 ± 0.048
protein stability index (pdr5∆): 2.17 ± 0.049
protein stability index (san1∆): 2.06 ± 0.062
protein stability index (ubr1∆): 2.19 ± 0.043

GIDPTRIYTNSFIDIME [RPO21]
protein stability index (doa10∆): 2.64 ± 0.048
protein stability index (pdr5∆): 2.5 ± 0.045
protein stability index (san1∆): 2.77 ± 0.048
protein stability index (ubr1∆): 2.53 ± 0.034

LGNTSSVANTPSEIPDA [SWI3]
protein stability index (doa10∆): 2.95 ± 0.059
protein stability index (pdr5∆): 3.06 ± 0.062
protein stability index (san1∆): 3.03 ± 0.091
protein stability index (ubr1∆): 2.98 ± 0.047

TTESSDLKEGLQDLSRY [GRR1]
protein stability index (doa10∆): 3.24 ± 0.12
protein stability index (pdr5∆): 3.33 ± 0.11
protein stability index (san1∆): 3.33 ± 0.052
protein stability index (ubr1∆): 3.55 ± 0.045

YNALFQQNIKFRRDFLL [YJL039C/NUP192]
protein stability index (doa10∆): 2.38 ± 0.096
protein stability index (pdr5∆): 2.02 ± 0.063
protein stability index (san1∆): 2.4 ± 0.068
protein stability index (ubr1∆): 2.3 ± 0.055

From the supplement of paper PMC9732359
